The target in this experiment is T1, human α1-antitrypsin (human, UniProt P01009 25-418).
T1 construct: Secreted recombinant human α1AT found in culture supernatant; also called α1AT; human α1AT
The experiment is described as follows: supernatant incubated with active NE (3, 30, 300 nM; 30 min, 23°), then immunoprecipitation, SDS-PAGE and autoradiography. The method, then: (B) At various times after infection, the lungs were minced, incubated for 1 hour in methionine-free LHC-8 medium (37°), and then incubated for 24 hours in medium with (³⁵S)-methionine (1 ml medium/150 mg tissue; 500 μCi/ml). The supernatant was then evaluated by immunoprecipitation with a rabbit antibody to human α1AT (Boehringer Mannheim), SDS-polyacrylamide gels, and autoradiography as in FIG. 2E. Trichloroacetic acid-precipitable radioactivity was evaluated by immunoprecipitation (for lanes 10-15, 2×10⁶ cpm; for lanes 16-18, 1×10⁶ cpm). Autoradiogram exposures for lanes 10 to 15 were identical; lanes 16-18 were evaluated at a different time, and the exposures adjusted such that the intensity of the α1AT band without NE was similar to lane 13. The ability of the synthesized human α1AT to inhibit its natural substrate, NE, was evaluated by incubating the supernatant with various dilutions of active NE (30 min, 23°) before immmunoprecipitation.
The de novo expression of the human α1AT protein lasted at least 1 week (lane 15) and the secreted human α1AT was functional, as shown by its ability to form a complex with its natural target, human neutrophil elastase (NE) (lanes 16-18).

T1 sequence (P01009 25-418 limits assumed): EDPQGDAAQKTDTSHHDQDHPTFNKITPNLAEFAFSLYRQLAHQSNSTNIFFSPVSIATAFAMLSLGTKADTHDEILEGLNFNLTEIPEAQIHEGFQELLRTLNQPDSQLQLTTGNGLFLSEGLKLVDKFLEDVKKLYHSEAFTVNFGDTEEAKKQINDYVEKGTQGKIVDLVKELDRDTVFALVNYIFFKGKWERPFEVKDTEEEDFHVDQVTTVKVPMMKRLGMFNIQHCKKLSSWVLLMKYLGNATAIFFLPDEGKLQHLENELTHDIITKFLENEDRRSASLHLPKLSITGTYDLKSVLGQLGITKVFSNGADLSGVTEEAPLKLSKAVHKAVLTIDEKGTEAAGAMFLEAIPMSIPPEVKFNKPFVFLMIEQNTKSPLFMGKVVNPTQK

B1: human neutrophil elastase (enzyme, UniProt P08246 30-247, looked up)
chain: IVGGRRARPHAWPFMVSLQLRGGHFCGATLIAPNFVMSAAHCVANVNVRAVRVVLGAHNLSRREPTRQVFAVQRIFENGYDPVNLLNDIVILQLNGSATINANVQVAQLPAQGRRLGNGVQCLAMGWGLLGRNRGIASVLQELNVTVVTSLCRRSNVCTLVRGRQAGVCFGDSGSPLVCNGLIHGIASFVRGGCASGLYPDAFAPVAQFVNWIDSIIQ
notes: Described as active NE
For the molecule B1, the binding result is “binds”.

Source of the values: patent publication US20020164304A1 (TRANSGENE, published 2002).
